The text below walks through data of PMC9941103.

Assay [1] deals with SNARE:Complexin-1 complex (UniProt P60881). As to the kind of experiment: native MS; equimolar Complexin-1 added to the pre-assembled SNARE complexes.
In assay [2] the target is fully assembled ternary SNARE complex (SNAP25:Syntaxin-1A:Synaptobrevin-2, 3Q:1R) (UniProt P60881). As to the kind of experiment: native MS; Synaptobrevin-2, SNAP25 and Syntaxin-1A mixed 1:1:1, incubated overnight.
Assay [3] shares this target. Kind of assay: native MS; equimolar Syntaxin-1A added to the pre-assembled 2:1 SNAP25:Synaptobrevin-2 complex.
For assay [4] the target is unchanged. Kind of assay: native MS; 1.2 molar excess of Synaptobrevin-2 added to pre-assembled binary SNAP25:Syntaxin-1A complexes (1:2 mix), analysed directly.
Assay [5] concerns the target pre-assembled binary SNAP25:Syntaxin-1A complex (1:2, 4Q:0R) (UniProt P60881). Kind of assay: native MS; SNAP25 and Syntaxin-1A mixed 1:2; 200 mM ammonium acetate.

As usually defined, the stoichiometry N is a count of units in the complex or per binding partner.

“And” between values parts separate entries of the source, which are not always exact repeats. Equal entries are not always repeated.

“SNARE:Complexin-1 complex (from UniProt P60881 1-206; P32851 1-262; P63045 1-96; P63041 1-134)” had a stoichiometry N in assay [1] of 2. “fully assembled ternary SNARE complex (SNAP25:Syntaxin-1A:Synaptobrevin-2, 3Q:1R) (from UniProt P60881 1-206; P32851 1-262; P63045 1-96)”: the stoichiometry N in assay [2] was 2 and 3; in assay [3], 2 and 3 and 4; in assay [4] it was 2 and 3. As to “pre-assembled binary SNAP25:Syntaxin-1A complex (1:2, 4Q:0R) (from UniProt P60881 1-206; P32851 1-262)”, the stoichiometry N in assay [5] came to 2.
